Laboratory results published in paper PMC8683613.

Experiments:
[1] = molecular target: oxygen-cleaved pyruvate formate-lyase mimic (cPFL, residues 1-733) (E. coli)
[2] = molecular target: truncated pyruvate formate-lyase (tPFL, residues 1-695) (E. coli)
[3] = molecular target: oxygen-cleaved pyruvate formate-lyase mimic (cPFL, residues 1-733) (E. coli); assay: ITC; YfiD variant in the syringe titrated into the PFL variant in the cell, matched buffer; MicroCal iTC200, 25 °C, 20 injections of 2.0 μl
[4] = molecular target: oxygen-cleaved pyruvate formate-lyase mimic (cPFL, residues 1-733) (E. coli); remark: listed apart in the source

Sequence of oxygen-cleaved pyruvate formate-lyase mimic (cPFL, residues 1-733) (E. coli) (P09373 2-734 limits assumed): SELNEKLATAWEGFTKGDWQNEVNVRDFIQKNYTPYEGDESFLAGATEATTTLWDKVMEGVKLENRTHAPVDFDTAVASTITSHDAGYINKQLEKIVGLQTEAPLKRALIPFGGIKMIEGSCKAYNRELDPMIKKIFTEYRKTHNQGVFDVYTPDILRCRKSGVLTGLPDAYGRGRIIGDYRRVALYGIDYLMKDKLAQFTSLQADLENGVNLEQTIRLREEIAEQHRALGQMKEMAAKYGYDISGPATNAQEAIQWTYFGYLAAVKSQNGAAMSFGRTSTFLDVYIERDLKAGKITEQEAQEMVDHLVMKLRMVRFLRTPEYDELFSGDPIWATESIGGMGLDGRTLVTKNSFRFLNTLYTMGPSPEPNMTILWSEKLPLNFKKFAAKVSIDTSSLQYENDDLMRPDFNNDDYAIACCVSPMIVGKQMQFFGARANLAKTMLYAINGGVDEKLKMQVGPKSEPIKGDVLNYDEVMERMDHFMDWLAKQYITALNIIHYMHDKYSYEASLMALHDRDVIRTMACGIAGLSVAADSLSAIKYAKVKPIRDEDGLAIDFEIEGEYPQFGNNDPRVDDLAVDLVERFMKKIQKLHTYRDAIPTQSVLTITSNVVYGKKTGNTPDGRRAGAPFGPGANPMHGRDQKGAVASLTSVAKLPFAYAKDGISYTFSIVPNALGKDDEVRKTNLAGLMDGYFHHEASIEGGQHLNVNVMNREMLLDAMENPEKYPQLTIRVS
Sequence of truncated pyruvate formate-lyase (tPFL, residues 1-695) (E. coli) (P09373 1-695): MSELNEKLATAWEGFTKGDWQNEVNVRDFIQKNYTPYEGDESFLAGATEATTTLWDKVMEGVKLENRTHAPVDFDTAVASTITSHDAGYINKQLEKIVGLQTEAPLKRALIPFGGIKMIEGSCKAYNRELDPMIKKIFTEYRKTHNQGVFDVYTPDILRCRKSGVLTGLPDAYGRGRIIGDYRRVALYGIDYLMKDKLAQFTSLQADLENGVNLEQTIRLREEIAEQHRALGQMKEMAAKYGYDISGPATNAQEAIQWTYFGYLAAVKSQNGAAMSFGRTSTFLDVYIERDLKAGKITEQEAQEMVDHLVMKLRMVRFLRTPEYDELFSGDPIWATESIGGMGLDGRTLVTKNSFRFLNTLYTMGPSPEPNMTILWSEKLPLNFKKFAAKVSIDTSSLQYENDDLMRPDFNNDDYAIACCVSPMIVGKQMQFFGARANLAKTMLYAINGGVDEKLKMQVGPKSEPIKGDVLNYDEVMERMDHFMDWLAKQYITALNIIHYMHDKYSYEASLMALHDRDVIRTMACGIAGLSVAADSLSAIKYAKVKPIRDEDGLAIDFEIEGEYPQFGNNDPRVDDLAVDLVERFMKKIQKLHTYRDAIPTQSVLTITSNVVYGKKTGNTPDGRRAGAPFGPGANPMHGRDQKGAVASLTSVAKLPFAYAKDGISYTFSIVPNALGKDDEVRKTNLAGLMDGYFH

| Kd [3] | apparent kcat of acetyl-CoA production by the activated cPFL:truncYfiD complex (coupled assay, 21 °C, per glycyl radical) [4] | Substance | glycyl radical installed by PFL-AE on the 1:1 cPFL:YfiD mixture (200 μM each), quantified by EPR; no detectable radical for the individual components [1] | glycyl radical installed by PFL-AE on the 1:1 tPFL:YfiD mixture (200 μM each), quantified by EPR [2] | glycyl radical installed by PFL-AE on the 1:1 cPFL:truncYfiD mixture (200 μM each), quantified by EPR [1] | glycyl radical installed by PFL-AE on the 1:1 tPFL:truncYfiD mixture (200 μM each), quantified by EPR [2] |
| --- | --- | --- | --- | --- | --- | --- |
| 14 µM | – | YfiD (spare part protein, autonomous glycyl radical cofactor) (from UniProt P68066 1-127) (natural protein) | 15.9 µM | 0.5 µM | – | – |
| – | 186 s⁻¹ | truncated YfiD (truncYfiD, residues 61-127) (from UniProt P68066 61-127) (domain or fragment) | – | – | 4.1 µM | 2.7 µM |
